Measured values from patent publication US20190071480A1 (Biogen, published 2019).
Where a chain is given by its changes, count along the chain named. Blank lines part the entries; values can stand above or below the binder they belong to.

How the values were obtained:
[1] = biological target: T1, extracellular domain of activin receptor type IIB (ActRIIBecd), biotinylated (Homo sapiens (Human), UniProt Q13705 27-117, amino-biotinylated with amine-PEG3-Biotin); assay: BIAcore SPR, biotinylated ActRIIBecd on chip; SD ±12.10 nM
T1 construct: immobilised on a streptavidin-coated sensor chip; also called biotinylated ActRIIBecd; extracellular domain of ActRIIB
T1 sequence: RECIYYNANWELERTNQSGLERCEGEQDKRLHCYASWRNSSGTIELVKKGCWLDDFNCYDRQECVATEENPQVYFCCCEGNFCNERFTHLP
Method: (§1) Biosensor experiments. In one embodiment, experiments were performed on a BIAcore™ T100/T200 instrument (Pharmacia Biosensor AB) in the multichannel mode (serial flow path involving flow cells 1+2+3+4). Flow rate was 10 μl/min; temperature was 25° C.; and data were recorded at 2.5 points/s. All four segments of a sensor chip CMS were coated with streptavidin (Sigma) to a density of 2000 pg/mm² (2000 resonance units) by the aminocoupling procedure. ActRIIBecd (10 mg) and amine-PEG3-Biotin (10 mg, Pierce, Rockford, Ill.) were dissolved in 200 μl H₂O and 10 mg NaCNBH₃ was added to prepare biotinylated ActRIIBecd. The reaction mixture was heated at 70° C. for 24 h, after that a further 10 mg NaCNBH₃ was added and the reaction was heated at 70° C. for another 24 h. After cooling to room temperature, the mixture was desalted with the spin column (3,000 molecular weight cut off (MWCO)). […] Sensograms were recorded during flow of the analyte (the ActRIIBecd-associated polypeptides (i.e., domains) as previously described) first through flow cell 1 (control) then through flow cell 2 (biotinylated ActRIIBecd). […] The sensograms obtained at 1.11, 3.33, 10, 30, and 90 nM analyte were evaluated for equilibrium binding, association rate, and dissociation rate by using the programs supplied with the instrument (BIA evaluation 2.1; Software Handbook. 1995; Pharmacia Biosensor AB).

[2] = biological target: T1, extracellular domain of activin …; assay: BIAcore SPR, biotinylated ActRIIBecd on chip; SD ±12.01 nM
Method: as §1

[3] = biological target: T1, extracellular domain of activin …; assay: Mean KD column of Table 5; method not restated (BIAcore as Example 5); species also listed in Table 4
Procedure, shortened: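 On a chip first coated with amine-coupled streptavidin (about 2000 RU), the biotin-conjugated receptor ectodomain was bound to 50-250 RU. Polypeptide solutions (1.11-90 nM, glycine buffer pH 4.5) passed over it at 10 μl/min and 25° C, and the resulting traces gave association rate, dissociation rate and equilibrium binding.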

[4] = biological target: T1, extracellular domain of activin …; assay: BIAcore SPR as Example 5 (method not restated); SD ±2.01 nM
Method: as §1

[5] = biological target: T1, extracellular domain of activin …; assay: BIAcore SPR, biotinylated ActRIIBecd on chip; SD ±10.27 nM
Method: as §1

[6] = biological target: T1, extracellular domain of activin …; assay: BIAcore SPR as Example 5 (method not restated); SD ±2.12 nM
Method: as §1

[7] = biological target: T1, extracellular domain of activin …; assay: BIAcore SPR, biotinylated ActRIIBecd on chip; SD ±16.71 nM
Method: as §1

[8] = biological target: T1, extracellular domain of activin …; assay: BIAcore SPR, biotinylated ActRIIBecd on chip; SD ±15.39 nM
Method: as §1

[9] = biological target: T1, extracellular domain of activin …; assay: BIAcore SPR, biotinylated ActRIIBecd on chip; SD ±14.78 nM
Method: as §1

[10] = biological target: T1, extracellular domain of activin …; assay: BIAcore SPR, biotinylated ActRIIBecd on chip; SD ±13.24 nM
Method: as §1

[11] = biological target: T1, extracellular domain of activin …; assay: BIAcore SPR, biotinylated ActRIIBecd on chip; SD ±13.97 nM
Method: as §1

[12] = biological target: T1, extracellular domain of activin …; assay: BIAcore SPR, biotinylated ActRIIBecd on chip; SD ±11.20 nM
Method: as §1

[13] = biological target: T1, extracellular domain of activin …; assay: BIAcore SPR, biotinylated ActRIIBecd on chip; SD ±11.61 nM
Method: as §1

[14] = biological target: T1, extracellular domain of activin …; assay: BIAcore SPR, biotinylated ActRIIBecd on chip; SD ±12.04 nM
Method: as §1

[15] = biological target: T1, extracellular domain of activin …; assay: BIAcore SPR, biotinylated ActRIIBecd on chip; SD ±13.21 nM
Method: as §1

[16] = biological target: T1, extracellular domain of activin …; assay: BIAcore SPR, biotinylated ActRIIBecd on chip; SD ±14.25 nM
Method: as §1

B2: Recombinant polypeptide of clones 19 + 8 + 14 (designed binder)
chain: NSKDPKACCVPTELSAPSPLYLDENEKPVLKNYQDMVVHGCGCRGQAKRKGYKRLKSSCKRHPLYVDFKDVGWNDHAVAPPGYHAFYCHGECPFPLADHLNSDNHAIVQTKVNSV
Kd [2]: 16 nM

B4: Recombinant polypeptide of clones 19 + 14 + 8 (designed binder)
chain: NSKDPKACCVPTELSAPSPLYLDENEKPVLKNYQDMVVHGCGCRVDFKDVGWNDHAVAPPGYHAFYCHGECPFPLADHLNSDNHAIVQTKVNSVGQAKRKGYKRLKSSCKRHPLY
Kd [5]: 14.1 nM

B6: Clone No. 9 domain (ActRIIBecd-associated polypeptide) (peptide)
chain: AQAKHKGYKRLKSSCKRHPLY
Kd [7]: 52.4 nM

B7: Clone No. 8 domain (ActRIIBecd-associated polypeptide) (peptide)
chain: GQAKRKGYKRLKSSCKRHPLY
Kd [8]: 45.1 nM

B8: Recombinant polypeptide of clones 14 + 8 + 19 (designed binder)
chain: VDFKDVGWNDHAVAPPGYHAFYCHGECPFPLADHLNSDNHAIVQTKVNSVGQAKRKGYKRLKSSCKRHPLYNSKDPKACCVPTELSAPSPLYLDENEKPVLKNYQDMVVHGCGCR
Kd [9]: 17.6 nM

B9: Recombinant polypeptide of clones 8 + 14 + 19 (designed binder)
chain: GQAKRKGYKRLKSSCKRHPLYVDFKDVGWNDHAVAPPGYHAFYCHGECPFPLADHLNSDNHAIVQTKVNSVNSKDPKACCVPTELSAPSPLYLDENEKPVLKNYQDMVVHGCGCR
Kd [10]: 15.6 nM

B11: Recombinant polypeptide of clones 10 + 15 + 21 (designed binder)
chain: AQAKHKQRKRLKSSCKRHPLYVDFSDVGWNDWIVAPPGYHAFYCHGECPFPLADHLNSTNHAIVQTLVNSVNSKIPKACCVPTELSAISMLYLDENEKVVLKNYQDMVVEGCGCR
Kd [12]: 17.2 nM

B13: Recombinant polypeptide of clones 8 + 15 + 19 (designed binder)
chain: B9 chain with K25S, H32W, A33I, D59T, K67L
Kd [14]: 16.5 nM

B15: Recombinant polypeptide of clones 21 + 10 + 15 (designed binder)
chain: NSKIPKACCVPTELSAISMLYLDENEKVVLKNYQDMVVEGCGCRAQAKHKQRKRLKSSCKRHPLYVDFSDVGWNDWIVAPPGYHAFYCHGECPFPLADHLNSTNHAIVQTLVNSV
Kd [16]: 16.7 nM

The remaining lines, values ahead:

Kd [1]: 17.1 nM
B1: Recombinant polypeptide of clones 8 + 21 + 15 (designed binder)
chain: GQAKRKGYKRLKSSCKRHPLYNSKIPKACCVPTELSAISMLYLDENEKVVLKNYQDMVVEGCGCRVDFSDVGWNDWIVAPPGYHAFYCHGECPFPLADHLNSTNHAIVQTLVNSV

Kd [3]: 46 nM
Kd [4]: 46 nM
B3: SEQ ID NO: 194, cysteine pairs C23-C65^a (designed binder)
chain: VDFSDVGWNDWIVAPPGYHAFYCHGECPFPLADHLNSTNHAIVQTLVNSVAQAKHKQRKRLKSSCKRHPLY
modifications: disulfides C23-C65 (intra)

Kd [3]: 42.3 nM
Kd [6]: 42.3 nM
B5: SEQ ID NO: 188, cysteine pairs C15-C44^a (designed binder)
chain: AQAKHKQRKRLKSSCKRHPLYVDFSDVGWNDWIVAPPGYHAFYCHGECPFPLADHLNSTNHAIVQTLVNSV
modifications: disulfides C15-C44 (intra)

Kd [11]: 17 nM
B10: Recombinant polypeptide of clones 10 + 19 + 14 (designed binder)
chain: AQAKHKQRKRLKSSCKRHPLYNSKDPKACCVPTELSAPSPLYLDENEKPVLKNYQDMVVHGCGCRVDFKDVGWNDHAVAPPGYHAFYCHGECPFPLADHLNSDNHAIVQTKVNSV

Kd [13]: 18 nM
B12: Recombinant polypeptide of clones 10 + 14 + 21 (designed binder)
chain: B11 chain with S25K, W32H, I33A, T59D, L67K

Kd [15]: 15.1 nM
B14: Recombinant polypeptide of clones 15 + 10 + 21 (designed binder)
chain: VDFSDVGWNDWIVAPPGYHAFYCHGECPFPLADHLNSTNHAIVQTLVNSVAQAKHKQRKRLKSSCKRHPLYNSKIPKACCVPTELSAISMLYLDENEKVVLKNYQDMVVEGCGCR
